Laboratory results as given in publication PMC4705692.
Read-outs that look alike come from different tables or passages of the source.

T1: Orf1 (HTH_42 DNA glycosylase) (Streptomyces sahachiroi ATCC33158, UniProt B4XYC8 1-371)
T1 sequence: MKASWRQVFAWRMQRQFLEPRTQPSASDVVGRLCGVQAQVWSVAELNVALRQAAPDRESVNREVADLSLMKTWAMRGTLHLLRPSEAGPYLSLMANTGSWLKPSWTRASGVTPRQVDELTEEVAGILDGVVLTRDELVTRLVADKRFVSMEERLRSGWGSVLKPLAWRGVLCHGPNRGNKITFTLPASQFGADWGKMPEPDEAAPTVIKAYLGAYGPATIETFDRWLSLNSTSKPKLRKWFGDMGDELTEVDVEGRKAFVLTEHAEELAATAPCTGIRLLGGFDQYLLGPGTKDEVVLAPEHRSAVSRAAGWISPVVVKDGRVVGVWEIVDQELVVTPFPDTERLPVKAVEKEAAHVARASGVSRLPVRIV

B1: GCC ODN (dsDNA)
DNA 1: TATTATTATGCCATTATTATT
DNA 2: AATAATAATGGCATAATAATA
B2: GCC ODN azinomycin B-adducted (dsDNA)
DNA 1: TATTATTATGCCATTATTATT
DNA 2: AATAATAATGGCATAATAATA
modifications: azinomycin B interstrand cross-link G-G at the GCC site (mixture with monoadduct possible)
B3: GCT ODN (dsDNA)
DNA 1: TATTATTATGCTATTATTATT
DNA 2: AATAATAATAGCATAATAATA
B4: GAT ODN (dsDNA)
DNA 1: TATTATTATGATATTATTATT
DNA 2: AATAATAATATCATAATAATA
B5: AAT ODN (dsDNA)
DNA 1: TATTATTATATTATTATTATT
DNA 2: AATAATAATAATATAATAATA

Legend:
Assay in all cases: EMSA
[1] = target: T1, Orf1 (HTH_42 DNA glycosylase)
[2] = target: T1, Orf1 (HTH_42 DNA glycosylase); remark: listed apart in the source
[3] = target: T1, Orf1 (HTH_42 DNA glycosylase); remark: listed apart in the source

Binder | binding result [3] | further results
B1 |  | binding result [1]: binds
B2 |  | binding result [2]: binds
B3 | binds | 
B4 | binds | 
B5 | binds | 
